# Test results taken from the supplement of paper PMC6379048.
# How the values were obtained:
# Experiment in all cases: Kd (EC50 corrected by depletion factor)
# HNRNPA0 = molecular target: T1, HNRNPA0 (UniProt Q13151)
# T1 sequence: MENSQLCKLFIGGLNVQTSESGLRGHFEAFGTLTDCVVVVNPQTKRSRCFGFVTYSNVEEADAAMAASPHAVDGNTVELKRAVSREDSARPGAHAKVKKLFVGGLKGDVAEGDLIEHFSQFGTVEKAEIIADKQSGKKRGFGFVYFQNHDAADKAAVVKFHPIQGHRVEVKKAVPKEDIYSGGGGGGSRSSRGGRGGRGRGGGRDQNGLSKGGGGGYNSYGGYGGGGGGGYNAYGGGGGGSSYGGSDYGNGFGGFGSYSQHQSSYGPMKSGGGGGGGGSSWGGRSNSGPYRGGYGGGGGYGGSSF
# In short: (§1)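 HEK293-FT lysate (2.5 mg protein/well) was pre-incubated 1 h at 4°C with free RNA oligos (0 nM to 30 μM), then 30 min at 4°C with the same 5′-amino-C6 oligos coupled to NHS-Sepharose beads. Bound proteins were quantified by label-free LC-MS/MS in three biological replicates and two independent experiments, and normalised to the water control. EC50 came from a four-parameter log-logistic fit; Kd is EC50 times a protein-dependent depletion factor.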
# LSM8 = molecular target: T2, LSM8 (UniProt O95777)
# T2 sequence: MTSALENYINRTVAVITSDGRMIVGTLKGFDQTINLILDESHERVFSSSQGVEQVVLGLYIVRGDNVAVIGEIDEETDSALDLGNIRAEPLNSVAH
# In short: as §1
# MRPS26 = MRPS26 (UniProt Q9BYN8)
# In short: as §1
# MRPS34 = MRPS34 (UniProt P82930)
# In short: as §1
# MYEF2 = molecular target: T3, MYEF2 (UniProt Q9P2K5)
# T3 sequence: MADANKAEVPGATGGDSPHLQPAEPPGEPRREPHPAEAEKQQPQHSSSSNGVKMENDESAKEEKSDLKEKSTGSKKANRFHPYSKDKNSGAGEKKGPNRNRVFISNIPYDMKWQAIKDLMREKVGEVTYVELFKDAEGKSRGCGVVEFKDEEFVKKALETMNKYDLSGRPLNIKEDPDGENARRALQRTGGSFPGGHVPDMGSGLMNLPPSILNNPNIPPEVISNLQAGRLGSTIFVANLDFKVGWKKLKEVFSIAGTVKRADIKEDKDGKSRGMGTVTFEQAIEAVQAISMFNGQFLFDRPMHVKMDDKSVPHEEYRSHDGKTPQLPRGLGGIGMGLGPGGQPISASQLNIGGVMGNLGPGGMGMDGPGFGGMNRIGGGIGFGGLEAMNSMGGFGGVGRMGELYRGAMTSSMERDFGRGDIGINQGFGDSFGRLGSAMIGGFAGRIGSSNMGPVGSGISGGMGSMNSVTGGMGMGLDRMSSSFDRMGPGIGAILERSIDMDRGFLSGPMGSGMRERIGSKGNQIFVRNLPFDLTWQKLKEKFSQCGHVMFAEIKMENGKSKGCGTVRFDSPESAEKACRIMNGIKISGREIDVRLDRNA
# In short: as §1
# TOE1 = TOE1 (UniProt Q96GM8)
# In short: as §1
# CPSF4 = CPSF4 (UniProt O95639)
# Chain of CPSF4 (O95639 whole entry): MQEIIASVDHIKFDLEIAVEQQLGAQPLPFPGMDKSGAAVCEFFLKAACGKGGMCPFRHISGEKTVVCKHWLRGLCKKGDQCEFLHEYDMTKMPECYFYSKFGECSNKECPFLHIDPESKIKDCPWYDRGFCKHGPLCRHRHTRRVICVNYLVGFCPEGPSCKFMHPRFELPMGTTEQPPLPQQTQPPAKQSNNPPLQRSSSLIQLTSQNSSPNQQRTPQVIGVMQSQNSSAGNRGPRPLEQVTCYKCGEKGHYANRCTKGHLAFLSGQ
# In short: as §1
# IFIT5 = molecular target: T4, IFIT5 (UniProt Q13325)
# T4 sequence: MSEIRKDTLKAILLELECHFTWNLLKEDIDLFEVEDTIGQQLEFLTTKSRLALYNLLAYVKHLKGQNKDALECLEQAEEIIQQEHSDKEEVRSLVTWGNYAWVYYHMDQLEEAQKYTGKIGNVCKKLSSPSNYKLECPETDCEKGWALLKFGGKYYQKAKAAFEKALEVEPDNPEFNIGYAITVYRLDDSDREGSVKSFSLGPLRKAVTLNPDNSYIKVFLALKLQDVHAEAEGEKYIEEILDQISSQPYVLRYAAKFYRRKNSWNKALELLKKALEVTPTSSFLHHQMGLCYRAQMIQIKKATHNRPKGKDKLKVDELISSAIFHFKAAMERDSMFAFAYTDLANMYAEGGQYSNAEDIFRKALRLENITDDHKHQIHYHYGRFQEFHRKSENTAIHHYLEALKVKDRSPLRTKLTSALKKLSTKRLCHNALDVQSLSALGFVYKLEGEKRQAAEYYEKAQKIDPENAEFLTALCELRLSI
# In short: as §1
# RBM14 = molecular target: T5, RBM14 (UniProt Q96PK6)
# T5 sequence: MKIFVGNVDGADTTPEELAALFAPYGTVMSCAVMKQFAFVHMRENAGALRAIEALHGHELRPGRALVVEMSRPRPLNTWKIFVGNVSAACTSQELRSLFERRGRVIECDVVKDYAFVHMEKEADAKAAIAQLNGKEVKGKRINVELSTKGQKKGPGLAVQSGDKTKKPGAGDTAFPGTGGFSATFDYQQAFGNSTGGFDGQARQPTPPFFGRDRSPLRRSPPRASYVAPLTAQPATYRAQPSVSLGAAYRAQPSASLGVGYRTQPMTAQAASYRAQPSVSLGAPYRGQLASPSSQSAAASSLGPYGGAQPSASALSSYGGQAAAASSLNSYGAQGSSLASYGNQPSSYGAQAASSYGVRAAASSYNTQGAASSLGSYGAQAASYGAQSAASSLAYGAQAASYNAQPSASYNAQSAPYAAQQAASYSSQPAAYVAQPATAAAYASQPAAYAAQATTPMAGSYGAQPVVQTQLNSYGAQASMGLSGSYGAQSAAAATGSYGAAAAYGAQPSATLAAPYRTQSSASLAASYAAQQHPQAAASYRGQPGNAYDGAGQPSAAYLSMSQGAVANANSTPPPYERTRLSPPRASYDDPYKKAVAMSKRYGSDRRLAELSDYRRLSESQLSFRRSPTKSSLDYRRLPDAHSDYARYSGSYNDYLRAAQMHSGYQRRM
# In short: as §1
# MRPL1 = MRPL1 (UniProt Q9BYD6)
# In short: as §1
# MRPS18A = MRPS18A (UniProt Q9NVS2)
# In short: as §1
sequence,measurement,setting,value
UAUUUAU,Kd,HNRNPA0,3200 nM
same,Kd,LSM8,2230 nM
same,Kd,MRPS26,15.9 nM
same,Kd,MRPS34,46.2 nM
same,Kd,MYEF2,2700 nM
same,Kd,TOE1,1020 nM
AAUAAA,Kd,CPSF4,5.95 nM
same,Kd,IFIT5,363 nM
same,Kd,RBM14,600 nM
CUGUCCU,Kd,MRPL1,80.4 nM
same,Kd,MRPS18A,23.9 nM
